Test results published in PMC12205998.

How the values were obtained:
[1] = target: E. fergusonii BrxB WT (Escherichia fergusonii); test: native MS; collected BrxB SEC peaks exchanged into 10 mM ammonium bicarbonate, 0.5 mg/ml, positive ion electrospray time-of-flight MS; monomer and dimer
[2] = target: E. fergusonii BrxB WT (Escherichia fergusonii); test: SEC; analytical SEC of E. fergusonii BrxB alone, 10 μM in 100 μl, Superdex 75 increase 10/300 GL, 20 mM Tris HCl pH 7.9, 150 mM NaCl; monomer and dimer

In the case of E. fergusonii BrxB WT (natural protein), the stoichiometry N [1] is reported as 2 and the stoichiometry N [2] is reported as 2.
